The source of these data is patent US20030157090A1 (published 2003).

The term Kd denotes the concentration at which binding is half-saturated.

In experiment [1] the target is T1, lysozyme (Sigma) (chicken, UniProt P00698 19-147).
T1 construct: also called lysozime; Lisozyme
Nature of the experiment: ELISA on coated lysozyme, E. coli periplasmic extracts normalized for total protein.

In experiment [2] the target is cucumber mosaic virus (CMV), purified (cucumber mosaic virus). Briefly: SPR (BIAcoreX), purified CMV amine-coupled to a CM5 chip, scFv in flow; kD=koff/kon. In general terms: In SPR one partner is held on a chip, and binding of the other changes the refractive index at the surface.
Experiment [3] deals with T1, lysozyme (Sigma). Nature of the experiment: column 'Specificity' of Table I; clone selected from the monoscaffold phage library and screened by ELISA. (In an ELISA, binding on a coated surface is turned into a signal by an enzyme label.)

Residue numbers refer to the chain shown, from its start.

T1 sequence (P00698 19-147): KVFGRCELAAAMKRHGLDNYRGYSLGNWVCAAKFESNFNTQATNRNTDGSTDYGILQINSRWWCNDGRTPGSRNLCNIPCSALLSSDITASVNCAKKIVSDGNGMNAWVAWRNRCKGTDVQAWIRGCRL

B1: scFv(P5) (scFv)
scFv: QVQLQESGGDLVQPGGSLKLSCAVSGFSLTGYGVNWVRQTPDKRLEWVAMIWGDGNTDYNSSVKGRFTISKDNAKSTVYLQMSSLKSEDTAMYYCARERDYRLDYWGQGTTVTVSSGGGGSGGGGSGGGGSDIELTQSPASLAVSLGQRATISCRASGNIHNYLAWYQQKPGQPPKLLIYYTTTLADGIPARFSGSGSGTDYTLTINPVEADDVATYYCQHFWSTPRTFGGGTKLEIKR
notes: Last product of mutagenesis, with the highest number of substitutions; also called P5 mutant; LYS/P5
In the case of B1, in experiment [1], the binding result is reported as “binds”.

B2: scFv(CMV-4G) (scFv)
scFv: QVQLQESGGDLVQPGGSLKLSCAASGFTFSSYGMSWVRQTPDKRLELVATINSNGGSTFYPDSVKGRFTISRDNAKNTLYLQMSSLKSEDTAMYYCARNNWSFDYWGQGTTVTVSSGGGGSGGGGSGGGGSDIELTQSPASLAVSLGQRATISCRASESVHNYMHWYQQKPGQPPKLLIYRALNLESGIPARFSGSGSRTDFTLTINPVEADDVATYYCQQGQRKPWTFGGGTKLEIKR
The molecule B2 showed a Kd in experiment [2] of 60 nM.

B3: scFv(CMV-4B) (scFv)
scFv: B2 scFv with W101Y, Q223R, K225A
In turn, B3 yielded a dissociation constant Kd in experiment [2] of 10 nM.

B4: scFv(LYS-11E) (scFv)
scFv: B2 scFv with N99T, N100R, W101P, S102Y, G222V, Q223T, R224Y
notes: also called scFv(HEL-11E)
Take B4: the binding result in experiment [3] is “binds”.
